According to patent US20210130436A1 (published 2021):

B1: variant CD80 IgV-Fc D46V/V68M (Fc fusion, not shown: small tags and cut ends; a dimerising Fc or GST)
chain: VIHVTKEVKEVATLSCGHNVSVEELAQTRIYWQKEKKMVLTMMSGVMNIWPEYKNRTIFDITNNLSIMILALRPSDEGTYECVVLKYEKDAFKREHLAEVTLSVKAD
B2: variant CD80 IgV-Fc E35D (Fc fusion, not shown: small tags and cut ends; a dimerising Fc or GST)
chain: VIHVTKEVKEVATLSCGHNVSVEELAQTRIYWQKDKKMVLTMMSGDMNIWPEYKNRTIFDITNNLSIVILALRPSDEGTYECVVLKYEKDAFKREHLAEVTLSVKAD
B3: variant CD80 IgV-Fc M47L/V68M/L85Q (Fc fusion, not shown: small tags and cut ends; a dimerising Fc or GST)
chain: VIHVTKEVKEVATLSCGHNVSVEELAQTRIYWQKEKKMVLTMMSGDLNIWPEYKNRTIFDITNNLSIMILALRPSDEGTYECVVQKYEKDAFKREHLAEVTLSVKAD
B4: variant CD80 IgV-Fc K89N (Fc fusion, not shown: small tags and cut ends; a dimerising Fc or GST)
chain: VIHVTKEVKEVATLSCGHNVSVEELAQTRIYWQKEKKMVLTMMSGDMNIWPEYKNRTIFDITNNLSIVILALRPSDEGTYECVVLKYENDAFKREHLAEVTLSVKAD
B5: variant CD80 IgV-Fc E35D/V68M/L85Q (Fc fusion, not shown: small tags and cut ends; a dimerising Fc or GST)
chain: VIHVTKEVKEVATLSCGHNVSVEELAQTRIYWQKDKKMVLTMMSGDMNIWPEYKNRTIFDITNNLSIMILALRPSDEGTYECVVQKYEKDAFKREHLAEVTLSVKAD
B6: variant CD80 IgV-Fc E35D/K89N (Fc fusion, not shown: small tags and cut ends; a dimerising Fc or GST)
chain: VIHVTKEVKEVATLSCGHNVSVEELAQTRIYWQKDKKMVLTMMSGDMNIWPEYKNRTIFDITNNLSIVILALRPSDEGTYECVVLKYENDAFKREHLAEVTLSVKAD
B7: variant CD80 IgV-Fc E35D/M47L/L85Q (Fc fusion, not shown: small tags and cut ends; a dimerising Fc or GST)
chain: VIHVTKEVKEVATLSCGHNVSVEELAQTRIYWQKDKKMVLTMMSGDLNIWPEYKNRTIFDITNNLSIVILALRPSDEGTYECVVQKYEKDAFKREHLAEVTLSVKAD
B8: variant CD80 IgV-Fc E35D/M47L/V68M (Fc fusion, not shown: small tags and cut ends; a dimerising Fc or GST)
chain: VIHVTKEVKEVATLSCGHNVSVEELAQTRIYWQKDKKMVLTMMSGDLNIWPEYKNRTIFDITNNLSIMILALRPSDEGTYECVVLKYEKDAFKREHLAEVTLSVKAD
B9: variant CD80 IgV-Fc E35D/N48K (Fc fusion, not shown: small tags and cut ends; a dimerising Fc or GST)
chain: VIHVTKEVKEVATLSCGHNVSVEELAQTRIYWQKDKKMVLTMMSGDMKIWPEYKNRTIFDITNNLSIVILALRPSDEGTYECVVLKYEKDAFKREHLAEVTLSVKAD
B10: variant CD80 IgV-Fc E35D/D46V/M47L/L85Q (Fc fusion, not shown: small tags and cut ends; a dimerising Fc or GST)
chain: VIHVTKEVKEVATLSCGHNVSVEELAQTRIYWQKDKKMVLTMMSGVLNIWPEYKNRTIFDITNNLSIVILALRPSDEGTYECVVQKYEKDAFKREHLAEVTLSVKAD
B11: variant CD80 IgV-Fc E35D/M47L/V68M/L85Q (Fc fusion, not shown: small tags and cut ends; a dimerising Fc or GST)
chain: VIHVTKEVKEVATLSCGHNVSVEELAQTRIYWQKDKKMVLTMMSGDLNIWPEYKNRTIFDITNNLSIMILALRPSDEGTYECVVQKYEKDAFKREHLAEVTLSVKAD
B12: variant CD80 IgV-Fc E35D/M47L (Fc fusion, not shown: small tags and cut ends; a dimerising Fc or GST)
chain: VIHVTKEVKEVATLSCGHNVSVEELAQTRIYWQKDKKMVLTMMSGDLNIWPEYKNRTIFDITNNLSIVILALRPSDEGTYECVVLKYEKDAFKREHLAEVTLSVKAD
B13: variant CD80 IgV-Fc E35D/M47V (Fc fusion, not shown: small tags and cut ends; a dimerising Fc or GST)
chain: VIHVTKEVKEVATLSCGHNVSVEELAQTRIYWQKDKKMVLTMMSGDVNIWPEYKNRTIFDITNNLSIVILALRPSDEGTYECVVLKYEKDAFKREHLAEVTLSVKAD
B14: variant CD80 IgV-Fc E35D/D46V/M47L/V68M/L85Q (Fc fusion, not shown: small tags and cut ends; a dimerising Fc or GST)
chain: VIHVTKEVKEVATLSCGHNVSVEELAQTRIYWQKDKKMVLTMMSGVLNIWPEYKNRTIFDITNNLSIMILALRPSDEGTYECVVQKYEKDAFKREHLAEVTLSVKAD
B15: variant CD80 IgV-Fc M47V (Fc fusion, not shown: small tags and cut ends; a dimerising Fc or GST)
chain: VIHVTKEVKEVATLSCGHNVSVEELAQTRIYWQKEKKMVLTMMSGDVNIWPEYKNRTIFDITNNLSIVILALRPSDEGTYECVVLKYEKDAFKREHLAEVTLSVKAD
B16: variant CD80 IgV-Fc E35D/D46V/L85Q (Fc fusion, not shown: small tags and cut ends; a dimerising Fc or GST)
chain: VIHVTKEVKEVATLSCGHNVSVEELAQTRIYWQKDKKMVLTMMSGVMNIWPEYKNRTIFDITNNLSIVILALRPSDEGTYECVVQKYEKDAFKREHLAEVTLSVKAD

Key:
[1] = molecular target: T1, human CTLA4 (CTLA-4), full-length, on CHO cells (human, UniProt P16410 36-223); assay: flow cytometry, CHO/CTLA4 cells; MFI relative to WT CD80 ECD-Fc
T1 construct: also called huCTLA4

[2] = molecular target: T2, CD28 endogenously expressed on Jurkat/IL2 reporter cells (human, UniProt P10747 19-220); assay: flow cytometry, Jurkat cells (CD28); MFI relative to WT CD80 ECD-Fc
T2 construct: also called Jurkats (CD28)

[3] = molecular target: T3, human PD-L1, full-length, on CHO cells (human, UniProt Q9NZQ7 19-290); assay: flow cytometry, CHO cells stably expressing PD-L1
T3 construct: also called huPD-L1; CD274

[4] = molecular target: T2, CD28 endogenously expressed on …; assay: flow cytometry, Jurkat cells (CD28)
[5] = molecular target: T1, human CTLA4 (CTLA-4), full-length, on …; assay: flow cytometry, CHO cells stably expressing CTLA4
[6] = molecular target: T3, human PD-L1, full-length, on CHO cells; assay: flow cytometry; PD-L1 MFI over CD28 MFI
[7] = molecular target: T3, human PD-L1, full-length, on CHO cells; assay: flow cytometry, CHO/PD-L1 cells; MFI relative to WT CD80 ECD-Fc

T3 sequence (Q9NZQ7 19-290): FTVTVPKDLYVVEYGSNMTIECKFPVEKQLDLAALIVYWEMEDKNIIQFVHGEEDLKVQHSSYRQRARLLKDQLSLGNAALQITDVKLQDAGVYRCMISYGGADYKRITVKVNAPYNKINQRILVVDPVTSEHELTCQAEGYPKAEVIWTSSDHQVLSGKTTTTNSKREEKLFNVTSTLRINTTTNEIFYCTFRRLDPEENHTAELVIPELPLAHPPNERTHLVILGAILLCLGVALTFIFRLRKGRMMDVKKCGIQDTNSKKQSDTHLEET
T1 sequence (P16410 36-223): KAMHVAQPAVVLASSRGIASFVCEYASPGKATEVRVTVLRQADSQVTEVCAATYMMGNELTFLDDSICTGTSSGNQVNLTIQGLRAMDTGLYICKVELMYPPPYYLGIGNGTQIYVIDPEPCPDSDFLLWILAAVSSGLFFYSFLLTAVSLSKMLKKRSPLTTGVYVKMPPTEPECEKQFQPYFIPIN

Binder	Fold change to WT CD80 [1] [fold]	Fold change to WT CD80 [2] [fold]	MFI at 33.3 nM [3] [MFI]	MFI at 33.3 nM [4] [MFI]	MFI at 33.3 nM [5] [MFI]	Ratio of PDL1:CD28 [6] [ratio]	Fold change to WT CD80 [7] [fold]
B1	0.1	0.8	2270	556	5330	4.1	17.7
B2	1.1	0.2	2580	134	42900	19.3	20.2
B3	0.3	0.1	4040	60.9	11100	66.3	31.6
B4	0	0.1	52.8	56.3	944	0.9	0.4
B5	1.1	0.1	5970	76.2	42800	78.4	46.6
B6	0.5	0.3	757	236	21800	3.2	5.9
B7	0.3	0.1	6100	46.3	12900	132	47.6
B8	0.7	1.8	27900	1240	28600	22.4	218
B9	1	0.3	6540	194	41300	33.7	51.1
B10	0.9	0.4	7520	268	38200	28.1	58.8
B11	0.7	0.2	15300	159	28100	96.3	120
B12	1.2	0.6	7530	411	48000	18.3	58.8
B13	1.1	0.7	6800	501	44600	13.6	53.1
B14	0.6	0.7	28400	464	26200	61.2	222
B15	0.8	0.1	2320	68.7	33300	33.7	18.1
B16	1.2	0.3	4040	196	48000	20.6	31.6
